In assay [1] the target is T1, Peptide 3p17 (NPY C terminus with similar a.a. substitutions).
T1 construct: Poly-alanine 17-mer ending QRH-amide
T1 peptide: AAAAAAAAAAAAAAQRH-NH2
The assay can be described thus: SPR (Biacore), FIGS. 11A and 11B. How it is done: (§1) Epitope mapping and determination of the affinity of MAb 5E12-B7 was also performed using a Biacore 2000 unit (GE Healthcare). Briefly, purified MAb 5E12-B7 was biotinylated as described above, except that the biotinylation reaction was performed at a 20:1 molar ratio of biotin:Ig. An SA-Chip (GE Healthcare) was docked into the Biacore 2000 unit and HBS-EP buffer (GE) was allowed to run over all 4 flow channels at 40 μL/min until signal had stabilized. The flow path was then switched to channel 4 only and HBS-EP containing 60 μg/mL biotinylated antibody was injected at 40 μL/min for 5 min to couple MAb 5E12-B7 to the chip via biotin-streptavidin binding. HBS-EP buffer was then run over channel 4 at 40 μL/min for over 30 min to remove all uncoupled Ig from the Biacore system then the flow path was changed to pass through all 4 flow channels. Association and dissociation of the peptides in Table 3 was measured using the Biacore Application Wizard. In each case, a baseline was established by passing HBS-EP over all 4 channels at 40 μL/min for 1 min before association was measure by injection of peptide (diluted to 1, 10, 100 or 1000 nM in HBS-EP) at 40 μL/min for 5 min. Dissociation was measured by allowing HBS-EP to pass over all 4 channels at 40 μL/min for 30 min. The kd, kₐ and KD were determined for each peptide by curve fitting using the BIAevalutation software.
For orientation: Surface plasmon resonance follows binding to a sensor surface in real time, without labels.

Assay [2] deals with T2, Peptide 3p18 (NPY C terminus with similar a.a. substitutions).
T2 construct: Poly-alanine 17-mer ending QRF-amide
T2 peptide: AAAAAAAAAAAAAAQRF-NH2
The assay is described as follows: SPR (Biacore), FIGS. 11A and 11B. As to the method: as §1

In assay [3] the target is T3, 1p19-AEDMARYYSA
T3 construct: also called Peptide 1p19 (10 mer shifting across NPY)
T3 peptide: AEDMARYYSA-NH2
The assay can be described thus: indirect ELISA, peptide coated on the plate (20 µg/mL), MAb 5E12-B7 at 1 µg/mL, O.D. 450 nm. How it is done:
(§2) ELISA was used to map the reactivity of purified MAb 5E12-B7 against the peptides described in Table 3. Briefly, ELISA microwell plates (96-well Maxisorp, Nunc) were coated overnight at 4° C. with 50 μL of mapping peptides (Table 3) diluted to 20 μg/mL in carbonate coating buffer (CCB). Between each of the following steps, microwell plates were washed three times with PBST using a plate washer (BioTek). Coated wells were blocked with 200 μL PBS containing 5% w/v skim milk (Diploma). Blocked wells were incubated for 1 hr with 50 μL of MAb 5E12-B7 diluted to 1 μg/mL in skim milk/PBST. Wells were then incubated for 1 hr with 50 μL Peroxidase-conjugated AffiniPure F(ab)2 fragment goat anti-mouse secondary antibody (Jackson) diluted 1:5000 in skim milk/PBST. Ig binding was detected by incubation of wells with 50 μL TMB substrate (Becton Dickinson). Substrate reaction was stopped after 15 min with 50 μL 1M H₂SO₄ and O.D. 450 nm was measured.
(In general: An ELISA detects its analyte on a solid surface through an enzyme-linked reagent.)

The target of assay [4] is T4, 1p29-LRHYINLITR
T4 construct: NPY residues 24-33; also called Peptide 1p29 (10 mer shifting across NPY)
T4 peptide: LRHYINLITR-NH2
The description is as above. How it is done:
as §2

Assay [5] deals with T5, 1p31-HYINLITRQR
T5 construct: NPY residues 26-35; also called Peptide 1p31 (10 mer shifting across NPY)
T5 peptide: HYINLITRQR-NH2
The description is as above. How it is done: as §2

In assay [6] the target is T6, 1p20-EDMARYYSAL
T6 construct: NPY residues 15-24; also called Peptide 1p20 (10 mer shifting across NPY)
T6 peptide: EDMARYYSAL-NH2
The assay is described as above. How it is done:
as §2

Assay [7] concerns the target T7, 1p21-DMARYYSALR
T7 construct: NPY residues 16-25; also called Peptide 1p21 (10 mer shifting across NPY)
T7 peptide: DMARYYSALR-NH2
The assay is described as above. How it is done:
as §2

For assay [8], the target named is T8, 1p22-MARYYSALRH
T8 construct: NPY residues 17-26; also called Peptide 1p22 (10 mer shifting across NPY)
T8 peptide: MARYYSALRH-NH2
Described as above. As to the method:
as §2

Assay [9] concerns the target T9, 1p23-ARYYSALRHY
T9 construct: NPY residues 18-27; also called Peptide 1p23 (10 mer shifting across NPY)
T9 peptide: ARYYSALRHY-NH2
Described as above. How it is done: as §2

Assay [10] deals with T10, 1p24-RYYSALRHYI
T10 construct: NPY residues 19-28; also called Peptide 1p24 (10 mer shifting across NPY)
T10 peptide: RYYSALRHYI-NH2
The description is as above. As to the method:
as §2

Assay [11] concerns the target T11, 1p25-YYSALRHYIN
T11 construct: NPY residues 20-29; also called Peptide 1p25 (10 mer shifting across NPY)
T11 peptide: YYSALRHYIN-NH2
The description is as above. As to the method: as §2

Assay [12] concerns the target T12, 1p26-YSALRHYINL
T12 construct: NPY residues 21-30; also called Peptide 1p26 (10 mer shifting across NPY)
T12 peptide: YSALRHYINL-NH2
Described as above. How it is done: as §2

Assay [13] deals with T13, 1p27-SALRHYINLI
T13 construct: NPY residues 22-31; also called Peptide 1p27 (10 mer shifting across NPY)
T13 peptide: SALRHYINLI-NH2
The description is as above. As to the method:
as §2

Where no end group is shown, it is not given here.

B1: MAb 5E12-B7 (antibody, V domains shown)
VH: QVQLQHPGTEVVKPGASVKLSCKASGYTFTNYWMHWVKQRPGQGLEWIGNIDPSNGGTNYNEKFKSKATLTVDKSSSTAYMQLSSLTSEDSAVYYCASFAYWGQGTLVTVSA
VL: DIQMTQSPASLSASVGETVTITCRASGNIHNYLAWYQQKQGKSPQLLVYNAKTLADGVPSRFSGSGSGTQYSLKISSLRPEDFGSYYCQHFWSPPFTFGSGTKLEIK
notes: Biotinylated for the Biacore and Octet assays; also called PYY/NPY antibody (5E12); anti-NPY/PYY antibody 5E12
On to B1, for which the binding result in assay [1] is “no binding”; in [2], “no binding”; in assay [3] it was “no binding (tested: 1 µg/mL)”; in assay [4], “no binding (tested: 1 µg/mL)”; in [5], “no binding (tested: 1 µg/mL)”; in assay [6] it was “no binding (tested: 1 µg/mL)”. Further, the binding result in assay [7], in assay [8], in assay [9], in [10], in assay [11] and in [12] was “no binding (tested: 1 µg/mL)” in each case. Moreover, in assay [13], the binding result was “no binding (tested: 1 µg/mL)”.

These data come from US20150307599A1 (GARVAN INSTITUTE OF MEDICAL RESEARCH, published 2015).
